Test results reported in article PMC12297522.

Assays:
[1] = molecular target: trastuzumab (wild-type Fc) (human)
[2] = molecular target: trastuzumab-PFc29 (human)

serum half-life (t1/2) in hiFcRn mice, 5 mg/kg i.v. [1] [days] | serum half-life in hiFcRn mice, 5 mg/kg i.v. [2] [days] | serum half-life (t1/2) in C57BL/6 mice, 5 mg/kg i.v. [1] [days] | serum half-life in C57BL/6 mice, 5 mg/kg i.v. [2] [days] | Substance
8.3 | 18.9 |  |  | human FcRn-GST (from UniProt P55899 24-365) (receptor)
 |  | 13.1 | 10.5 | mouse FcRn-GST (from UniProt Q61559 22-365) (receptor)
